The source of these data is publication PMC8389195, “Demyristoylation of the Cytoplasmic Redox Protein Trx-h2 Is Critical for Inducing a Rapid Cold Stress Response in Plants”.

The data set addresses MBP-CBF1 (Arabidopsis thaliana, UniProt P93835 1-213). In words: EMSA; NADPH, Trx reductase, Trx-h2 (reduced CBF1); EMSA kit (Thermo Fisher), poly(dI-dC) binding buffer, NADPH/Trx reductase/Trx-h2 system, 6% polyacrylamide gel; proteins dialyzed in 20 mM HEPES-NaOH pH 8.0; salt and temperature not stated. The settings on record: protein: recombinant; tags: MBP (N-terminal, pMAL vector); blunt.

Sequence of MBP-CBF1 (P93835 whole entry): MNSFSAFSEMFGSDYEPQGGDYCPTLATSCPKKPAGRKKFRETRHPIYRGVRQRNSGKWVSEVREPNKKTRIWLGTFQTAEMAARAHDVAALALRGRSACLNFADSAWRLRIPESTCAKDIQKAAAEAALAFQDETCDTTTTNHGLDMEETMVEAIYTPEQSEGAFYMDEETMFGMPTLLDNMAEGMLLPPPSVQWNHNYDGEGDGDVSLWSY

B1: COR15a promoter CRT/DRE probe (dsDNA)
DNA 1: ATTTCATGGCCGACCTGCTTTTT
DNA 2: AAAAAGCAGGTCGGCCATGAAAT
In the case of B1, the binding result is on record as “binds”.
